Source: US20260256915A1 (published 2026)
Changes are numbered by the printed parent chain.

T1: PRAME peptide on HLA-A*02:01 (human)
T1 peptide: SLLQHLIGL

B1: nwTCR-2916 (TCR, V domains shown)
Valpha: GQQLNQSPQSMFIQEGEDVSMNCTSSSIFNTWLWYKQDPGEGPVLLIALYKAGELTSNGRLTAQFGITRKDSFLNISASIPSDVGIYFCAGQDDGGSQGNLIFGKGTKLSVKP
Vbeta: DSGVTQTPKHLITATGQRVTLRCSPRSGDLSVYWYQQSLDQGLQFLIQYYNGEERAKGNILERFSAQQFPDLHSELNLSSLELGDSALYFCASSPWTSGGDGELFFGEGSRLTVL
B2: nwTCR-2793 (TCR, V domains shown)
Valpha: QKEVEQNSGPLSVPEGAIASLNCTYSDRVSQSFFWYRQYSGKSPELIMSIYSNGDKEDGRFTAQLNKASQYVSLLIRDSQPSDSATYLCAVVSSNDYKLSFGAGTTVTVRA
Vbeta: EAQVTQNPRYLITVTGKKLTVTCSQNMNHEYMSWYRQDPGLGLRQIYYSMNVEVTDKGDVPEGYKVSRKEKRNFPLILESPSPNQTSLYFCASSPGTIGELFFGEGSRLTVL
B3: nwTCR-2915 (TCR, V domains shown)
Valpha: GESVGLHLPTLSVQEGDNSIINCAYSNSASDYFIWYKQESGKGPQFIIDIRSNMDKRQGQRVTVLLNKTVKHLSLQIAATQPGDSAVYFCAESYGQKLLFARGTMLKVDL
Vbeta: B2 Vbeta with P95F, G96W, T97S, I98A
B4: nwTCR-3173 (TCR, V domains shown)
Valpha: SQQGEEDPQALSIQEGENATMNCSYKTSINNLQWYRQNSGRGLVHLILIRSNEREKHSGRLRVTLDTSKKSSSLLITASRAADTASYFCATYANDYKLSFGAGTTVTVRA
Vbeta: EAQVTQNPRYLITVTGKKLTVTCSQNMNHEYMSWYRQDPGLGLRQIYYSMNVEVTDKGDVPEGYKVSRKEKRNFPLILESPSPNQTSLYFCASSAGTGGFVGYTFGSGTRLTVV
B5: nwTCR-3271 (TCR, V domains shown)
Valpha: DQQVKQNSPSLSVQEGRISILNCDYTNSMFDYFLWYKKYPAEGPTFLISISSIKDKNEDGRFTVFLNKSAKHLSLHIVPSQPGDSAVYFCAAKPDKLIFGTGTRLQVFP
Vbeta: SAVISQKPSRDICQRGTSLTIQCQVDSQVTMMFWYRQQPGQSLTLIATANQGSEATYESGFVIDKFPISRPNLTFSTLTVSNMSPEDSSIYLCSVWGAGLAIYNEQFFGPGTRLTVL
B6: nwTCR-2970 (TCR, V domains shown)
Valpha: QQPVQSPQAVILREGEDAVINCSSSKALYSVHWYRQKHGEAPVFLMILLKGGEQKGHDKISASFNEKKQQSSLYLTASQLSYSGTYFCGTEFRNDYKLSFGAGTTVTVRA
Vbeta: EAQVTQNPRYLITVTGKKLTVTCSQNMNHEYMSWYRQDPGLGLRQIYYSMNVEVTDKGDVPEGYKVSRKEKRNFPLILESPSPNQTSLYFCASSPGTGGYGYTFGSGTRLTVV
B7: nwTCR-3273 (TCR, V domains shown)
Valpha: SQELEQSPQSLIVQEGKNLTINCTSSKTLYGLYWYKQKYGEGLIFLMMLQKGGEEKSHEKITAKLDEKKQQSSLHITASQPSHAGIYLCGAVPINDYKLSFGAGTTVTVRA
Vbeta: EAQVTQNPRYLITVTGKKLTVTCSQNMNHEYMSWYRQDPGLGLRQIYYSMNVEVTDKGDVPEGYKVSRKEKRNFPLILESPSPNQTSLYFCASSIDSGSSYNEQFFGPGTRLTVL
B8: nwTCR-3028 (TCR, V domains shown)
Valpha: SQQGEEDPQALSIQEGENATMNCSYKTSINNLQWYRQNSGRGLVHLILIRSNEREKHSGRLRVTLDTSKKSSSLLITASRAADTASYFCATDVKSSYKLIFGSGTRLLVRP
Vbeta: AAGVIQSPRHLIKEKRETATLKCYPIPRHDTVYWYQQGPGQDPQFLISFYEKMQSDKGSIPDRFSAQQFSDYHSELNMSSLELGDSALYFCASSLGLLGNEQFFGPGTRLTVL
B9: nwTCR-3272 (TCR, V domains shown)
Valpha: QKEVEQNSGPLSVPEGAIASLNCTYSDRGSQSFFWYRQYSGKSPELIMSIYSNGDKEDGRFTAQLNKASQYVSLLIRDSQPSDSATYLCAVPSGNMLTFGGGTRLMVKP
Vbeta: DVKVTQSSRYLVKRTGEKVFLECVQDMDHENMFWYRQDPGLGLRLIYFSYDVKMKEKGDIPEGYSVSREKKERFSLILESASTNQTSMYLCASSSATSGSGEQYFGPGTRLTVT
B10: nwTCR-3274 (TCR, V domains shown)
Valpha: QKEVEQNSGPLSVPEGAIASLNCTYSDRGSQSFFWYRQYSGKSPELIMSIYSNGDKEDGRFTAQLNKASQYVSLLIRDSQPSDSATYLCAVVSGGYNKLIFGAGTRLAVHP
Vbeta: EPEVTQTPSHQVTQMGQEVILRCVPISNHLYFYWYRQILGQKVEFLVSFYNNEISEKSEIFDDQFSVERPDGSNFTLKIRSTKLEDSAMYFCASSEGWGGTEAFFGQGTRLTVV
B11: nwTCR-3125 (TCR, V domains shown)
Valpha: QKEVEQNSGPLSVPEGAIASLNCTYSDRVSQSFFWYRQYSGKSPELIMSIYSNGDKEDGRFTAQLNKASQYVSLLIRDSQPSDSATYLCALVSGTYKYIFGTGTRLKVLA
Vbeta: DTAVSQTPKYLVTQMGNDKSIKCEQNLGHDTMYWYKQDSKKFLKIMFSYNNKELIINETVPNRFSPKSPDKAHLNLHINSLELGDSAVYFCASSPGLAYEQYFGPGTRLTVT
B12: nwTCR-3095 (TCR, V domains shown)
Valpha: DQQVKQNSPSLSVQEGRISILNCDYTNSMFDYFLWYKKYPAEGPTFLISISSIKDKNEDGRFTVFLNKSAKHLSLHIVPSQPGDSAVYFCAAFASDSNYQLIWGAGTKLIIKP
Vbeta: DTAVSQTPKYLVTQMGNDKSIKCEQNLGHDTMYWYKQDSKKFLKIMFSYNNKELIINETVPNRFSPKSPDKAHLNLHINSLELGDSAVYFCASSPWTSGGNGELFFGEGSRLTVL

Target: T1, PRAME peptide on HLA-A*02:01
Test: multimer staining

binding result	Binder
recognises	B1
recognises	B2
recognises	B3
recognises	B4
recognises	B5
recognises	B6
recognises	B7
recognises	B8
recognises	B9
recognises	B10
recognises	B11
recognises	B12
